This data set addresses T1, recombinant SCCA-1 with a polyhistidine tag (6x His), P29508.
T1 chain: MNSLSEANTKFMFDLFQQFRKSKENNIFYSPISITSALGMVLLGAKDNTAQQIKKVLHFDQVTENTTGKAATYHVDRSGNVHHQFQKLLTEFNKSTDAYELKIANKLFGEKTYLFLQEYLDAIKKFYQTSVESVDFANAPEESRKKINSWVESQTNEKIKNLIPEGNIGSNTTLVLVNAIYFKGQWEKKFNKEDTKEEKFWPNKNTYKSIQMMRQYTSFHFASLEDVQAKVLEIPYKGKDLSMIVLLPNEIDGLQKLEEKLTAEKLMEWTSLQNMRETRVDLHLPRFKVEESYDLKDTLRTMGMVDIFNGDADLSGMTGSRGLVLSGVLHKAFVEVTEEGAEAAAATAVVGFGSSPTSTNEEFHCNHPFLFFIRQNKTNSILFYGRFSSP

B1: active recombinant phosphorylated JNK-1 (Cell Signaling) (protein)
chain: MSRSKRDNNFYSVEIGDSTFTVLKRYQNLKPIGSGAQGIVCAAYDAILERNVAIKKLSRPFQNQTHAKRAYRELVLMKCVNHKNIIGLLNVFTPQKSLEEFQDVYIVMELMDANLCQVIQMELDHERMSYLLYQMLCGIKHLHSAGIIHRDLKPSNIVVKSDCTLKILDFGLARTAGTSFMMTPYVVTRYYRAPEVILGMGYKENVDLWSVGCIMGEMVCHKILFPGRDYIDQWNKVIEQLGTPCPEFMKKLQPTVRTYVENRPKYAGYSFEKLFPDVLFPADSEHNKLKASQARDLLSKMLVIDASKRISVDEALQHPYINVWYDPSEAEAPPPKIPDKQLDEREHTIEEWKELIYKEVMDLEERTKNGVIRGQPSPLAQVQQ
As for B1, the “amount of phosphorylated c-Jun (in vitro pull-down JNK kinase assay on c-Jun fused protein beads, western blot with anti-phosphorylated c-Jun antibody)” value is “in the case of incubating SCCA-1 with active JNK-1, the amount of phosphorylated c-Jun decreased remarkably as compared with the control not containing SCCA-1”.

B2: active recombinant phosphorylated JNK-2 (Cell Signaling) (protein)
chain: MSDSKCDSQFYSVQVADSTFTVLKRYQQLKPIGSGAQGIVCAAFDTVLGINVAVKKLSRPFQNQTHAKRAYRELVLLKCVNHKNIISLLNVFTPQKTLEEFQDVYLVMELMDANLCQVIHMELDHERMSYLLYQMLCGIKHLHSAGIIHRDLKPSNIVVKSDCTLKILDFGLARTACTNFMMTPYVVTRYYRAPEVILGMGYKENVDIWSVGCIMGELVKGCVIFQGTDHIDQWNKVIEQLGTPSAEFMKKLQPTVRNYVENRPKYPGIKFEELFPDWIFPSESERDKIKTSQARDLLSKMLVIDPDKRISVDEALRHPYITVWYDPAEAEAPPPQIYDAQLEEREHAIEEWKELIYKEVMDWEERSKNGVVKDQPSDAAVSSNATPSQSSSINDISSMSTEQTLASDTDSSLDASTGPLEGCR
Consider B2, for which the “amount of phosphorylated c-Jun (in vitro pull-down JNK kinase assay on c-Jun fused protein beads, western blot with anti-phosphorylated c-Jun antibody)” value was “in the case of incubating SCCA-1 with active JNK-2, there was no significant decrease in the amount of phosphorylated c-Jun observed as compared with the control”.

The values above are taken from US20050215509.
